B1: Phage-163 (peptide)
peptide: MFWCPRYLWHECFN
B2: Phage-164 (peptide)
peptide: MDWCPKFLWDLCFA
B3: Phage-165 (peptide)
peptide: MDWCPFYLWDECFL
B4: Phage-167 (peptide)
peptide: MSWCPQDLWHVCFN
B5: Phage-168 (peptide)
peptide: MDWCPKDLWHECFN
B6: Phage-170 (peptide)
peptide: MNWCPSDLWHLCFN
B7: Phage-171 (peptide)
peptide: MNWCPSHLWHMCYF
B8: Phage-172 (peptide)
peptide: MDWCPPYLWYECFA
B9: Phage-173 (peptide)
peptide: MDWCPMNLWSECFN
B10: Phage-174 (peptide)
peptide: MDWCPKHLWNECFN
B11: Phage-175 (peptide)
peptide: MDWCPAYLWAECFS
B12: Phage-176 (peptide)
peptide: MDWCPSDLWHECFH
B13: Phage-177 (peptide)
peptide: MDWCPVSLWDHCFN
B14: Phage-179 (peptide)
peptide: MDWCPWILWNECFN
B15: Phage-181 (peptide)
peptide: MYWCPRDLWDVCFN
B16: Phage-182 (peptide)
peptide: MHWCPRSLWNECYF
B17: Phage-183 (peptide)
peptide: IDWCPRDLWALCFN
B18: Phage-184 (peptide)
peptide: MHWCPINLWNECFS
B19: Phage-186 (peptide)
peptide: QDWCPTYLWHHCFN
B20: Phage-187 (peptide)
peptide: IGKLTLCLNADLVI
B21: Phage-188 (peptide)
peptide: MDWCPSYLWDQCFF
B22: Phage-189 (peptide)
peptide: VDWCPRYLWHVCYN
B23: Phage-190 (peptide)
peptide: MDWCPRDMWAECFF
B24: Phage-191 (peptide)
peptide: MDWCPRDMWYECFN
B25: Phage-192 (peptide)
peptide: DVWCPKYMWSLCFN
B26: Phage-193 (peptide)
peptide: MDWCPMDMWVNCFN
B27: Phage-194 (peptide)
peptide: MDWCPSDMWHECYA
B28: Phage-195 (peptide)
peptide: MDWCPKHMWFMCFN
B29: Phage-196 (peptide)
peptide: MDWCPRYMWYQCFS
B30: Phage-197 (peptide)
peptide: MDWCPRHMWYECFF
B31: Phage-198 (peptide)
peptide: MDWCPRAMWNHCFN
B32: Phage-199 (peptide)
peptide: MDWCPRNMWAQCFA
B33: Phage-200 (peptide)
peptide: MFWCPFDMWHFCFN
B34: Phage-201 (peptide)
peptide: MDWCPRDMWDQCFD
B35: Phage-202 (peptide)
peptide: MFWCPMDMWDQCFN
B36: Phage-203 (peptide)
peptide: MSWCPRDMWFYCYA
B37: Phage-205 (peptide)
peptide: MDWCPTDMWHHCFL
B38: Phage-206 (peptide)
peptide: IHWCPINMWDKCYN
B39: Phage-207 (peptide)
peptide: MDWCPRAMWHECFY
B40: Phage-208 (peptide)
peptide: MDWCPTDMWIVCFA
B41: Phage-209 (peptide)
peptide: IDWCPQDMWFYCFN
B42: Phage-210 (peptide)
peptide: MDWCPRDMWFECFA
B43: Phage-212 (peptide)
peptide: MDWCPRAMWDKCFF
B44: Phage-213 (peptide)
peptide: MNWCPSYMWDQCFA
B45: Phage-214 (peptide)
peptide: MDWCPTYMWSECFN
B46: Phage-215 (peptide)
peptide: MDWCPRYMWNECFN
B47: Phage-216 (peptide)
peptide: MDWCPMNMWYQCFN
B48: Phage-297 clonal phage peptide (peptide)
peptide: MDWCPRHLWTECFS
notes: on phage (pIII fusion)
B49: Phage-236 clonal phage peptide (peptide)
peptide: MDWCPRDLWNLCFF
notes: on phage (pIII fusion)
B50: Phage-265 clonal phage peptide (peptide)
peptide: MDWCPRFMWDLCFA
notes: on phage (pIII fusion)
B51: Phage-278 clonal phage peptide (peptide)
peptide: MDWCPRSIWYLCFN
notes: on phage (pIII fusion)
B52: Phage-298 clonal phage peptide (peptide)
peptide: MDWCPLYLWAECFN
notes: on phage (pIII fusion)

Assays:
[1] = biological target: T1, Anti-CD28 scFv (VH-linker 1-VL) (biotinylated for capture on neutravidin plates); assay: phage ELISA, scFv captured on plate, competitor soluble CD28;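 also: crude clonal phage supernatants added to wells pre-incubated with soluble CD28 or with blocking buffer only as control, bound phage read out with HRP-linked anti-M13 antibody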
Protocol: (§1) Clonal phage were harvested as crude supernatants and screened via standard enzyme linked immunosorbent assays (ELISAs). […] Prior to the addition of clonal phage, wells were incubated with blocking buffer and CD28 soluble protein or blocking buffer alone. Without washing or aspirating, clonal phage supernatants were then added to the wells and incubated for a short time. Wells were then washed followed by detection of bound phage using a horse radish peroxidase conjugated anti-M13 antibody.

[2] = biological target: T1, Anti-CD28 scFv (VH-linker 1-VL); assay: phage ELISA, scFv captured on plate;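 also: crude clonal phage supernatants added to wells preincubated with soluble CD28 or with blocking buffer only, bound phage read out by HRP-linked anti-M13 antibody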
Protocol: as §1

[3] = biological target: T2, anti-CD28 scFv (VH-linker 1-VL) (biotinylated (site not stated)); assay: phage ELISA; scFv wells pre-incubated with soluble CD28 (competitor);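 also: crude clonal phage supernatants added to wells pretreated with soluble CD28 in blocking buffer, bound phage read via HRP-linked anti-M13 antibody, reference wells got blocking buffer only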
T2 construct: Captured as biotinylated scFv on neutravidin coated plates in the phage ELISA
T2 sequence (scFv, as listed by the source): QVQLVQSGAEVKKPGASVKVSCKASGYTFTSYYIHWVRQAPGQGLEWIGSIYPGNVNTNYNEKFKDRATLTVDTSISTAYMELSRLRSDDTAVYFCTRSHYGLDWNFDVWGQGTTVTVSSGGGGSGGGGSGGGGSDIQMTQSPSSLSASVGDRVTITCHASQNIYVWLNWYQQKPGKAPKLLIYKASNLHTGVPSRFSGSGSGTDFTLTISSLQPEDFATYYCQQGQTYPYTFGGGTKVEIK

T1 sequence (scFv, as listed by the source): as above

| Binder | Phage binding ELISA CD28 scFv signal in presence of CD28 [1] | Phage binding ELISA CD28 scFv signal [2] | CD28 scFv signal in presence of CD28 [3] |
| --- | --- | --- | --- |
| B1 | 0.175 | 1.08 |  |
| B2 | 0.139 | 1.07 |  |
| B3 | 0.141 | 1.02 |  |
| B4 | 0.112 | 0.86 |  |
| B5 | 0.1 | 0.762 |  |
| B6 | 0.131 | 0.739 |  |
| B7 | 0.192 | 0.702 |  |
| B8 | 0.094 | 0.692 |  |
| B9 | 0.124 | 0.67 |  |
| B10 | 0.105 | 0.663 |  |
| B11 | 0.12 | 0.64 |  |
| B12 | 0.164 | 0.629 |  |
| B13 | 0.1 | 0.616 |  |
| B14 | 0.137 | 0.581 |  |
| B15 | 0.102 | 0.512 |  |
| B16 | 0.115 | 0.456 |  |
| B17 | 0.129 | 0.37 |  |
| B18 | 0.098 | 0.316 |  |
| B19 | 0.122 | 0.123 |  |
| B20 | 0.1 | 0.116 |  |
| B21 | 0.079 | 0.083 |  |
| B22 | 0.061 | 0.065 |  |
| B23 | 2.26 | 2.69 |  |
| B24 | 0.235 | 2.56 |  |
| B25 | 0.418 | 2.53 |  |
| B26 | 0.277 | 2.52 |  |

| Binder | Phage binding ELISA CD28 scFv signal in presence of CD28 [1] | Phage binding ELISA CD28 scFv signal [2] | CD28 scFv signal in presence of CD28 [3] |
| --- | --- | --- | --- |
| B27 | 0.2 | 2.47 |  |
| B28 | 0.372 | 2.4 |  |
| B29 | 0.357 | 2.36 |  |
| B30 | 0.298 | 2.34 |  |
| B31 | 0.426 | 2.33 |  |
| B32 | 0.209 | 2.31 |  |
| B33 | 0.469 | 2.29 |  |
| B34 | 0.119 | 2.29 |  |
| B35 | 0.207 | 2.26 |  |
| B36 | 0.174 | 2.25 |  |
| B37 | 0.126 | 2.2 |  |
| B38 | 0.203 | 2.08 |  |
| B39 | 0.129 | 1.92 |  |
| B40 | 0.172 | 1.5 |  |
| B41 | 0.16 | 1.42 |  |
| B42 | 0.143 | 1.31 |  |
| B43 | 0.094 | 0.985 |  |
| B44 | 0.105 | 0.854 |  |
| B45 | 0.107 | 0.754 |  |
| B46 | 0.128 | 0.687 |  |
| B47 | 0.137 | 0.639 |  |
| B48 |  |  | 0.243 |
| B49 |  |  | 0.436 |
| B50 |  |  | 0.725 |
| B51 |  |  | 1.34 |
| B52 |  |  | 0.193 |

Reference: patent publication US20230357447A1 (JANUX THERAPEUTICS, published 2023)
